What was measured:
FcγRIIa (CD32) (H131) = experiment: Lumit FcγRIIa (H131) Binding Immunoassay (Promega), left panel FcγRIIa (CD32) (H131), competition with Tracer-LgBiT, n=1
[1] = molecular target: FcγRIIIa (CD16) (V158) (Homo sapiens) (UniProt P08637); experiment: Lumit FcγRIIIa (V158) Binding Immunoassay (Promega), left panel FcγRIIIa (CD16) (V158), competition with Tracer-LgBiT, n=1
[2] = molecular target: recombinant human FcRn (FcγRn-SmBiT, Lumit assay) (human) (UniProt P55899); experiment: Lumit FcRn Binding Immunoassay (Promega), competition with Tracer-LgBiT for FcRn-SmBiT, n=1
recombinant human FcRn (FcγRn-SmBiT, Lumit assay) (human), sequence (P55899 24-297 limits assumed, chain 1 of 2): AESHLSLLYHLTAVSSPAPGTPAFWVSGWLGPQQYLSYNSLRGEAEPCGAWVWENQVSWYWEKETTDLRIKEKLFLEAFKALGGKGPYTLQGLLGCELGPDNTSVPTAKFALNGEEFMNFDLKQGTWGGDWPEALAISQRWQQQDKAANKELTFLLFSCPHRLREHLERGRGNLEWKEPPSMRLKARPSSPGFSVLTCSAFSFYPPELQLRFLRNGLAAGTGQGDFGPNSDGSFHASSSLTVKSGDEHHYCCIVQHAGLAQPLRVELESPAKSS
recombinant human FcRn (FcγRn-SmBiT, Lumit assay) (human), sequence (chain, as listed by the source limits assumed, chain 2 of 2): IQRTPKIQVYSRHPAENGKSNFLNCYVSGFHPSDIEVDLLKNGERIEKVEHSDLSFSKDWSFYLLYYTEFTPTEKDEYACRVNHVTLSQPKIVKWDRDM

FcγRIIa (CD32) (H131), sequence (chain, as listed by the source limits assumed): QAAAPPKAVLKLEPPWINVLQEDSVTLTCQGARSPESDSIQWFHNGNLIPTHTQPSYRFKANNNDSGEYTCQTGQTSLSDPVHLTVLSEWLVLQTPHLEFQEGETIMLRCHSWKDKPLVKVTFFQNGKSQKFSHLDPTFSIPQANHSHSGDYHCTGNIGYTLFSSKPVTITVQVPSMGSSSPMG
FcγRIIIa (CD16) (V158) (Homo sapiens), sequence (P08637 17-208 F176V limits assumed): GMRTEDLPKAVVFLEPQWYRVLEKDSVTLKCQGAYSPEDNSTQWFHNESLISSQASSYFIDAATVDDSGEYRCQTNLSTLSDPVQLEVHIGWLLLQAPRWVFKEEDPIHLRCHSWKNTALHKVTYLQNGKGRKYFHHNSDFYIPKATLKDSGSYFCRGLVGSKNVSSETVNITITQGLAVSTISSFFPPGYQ

Substance “IgG1 positive control (standard of the Lumit FcγR Binding Immunoassays) (antibody)” has an IC50 (read off the curve) (FcγRIIa (CD32) (H131)) of 1 µg/mL, an IC50 (read off the curve) [1] of 2 µg/mL and an IC50 (read off the curve) [2] of 2 µg/mL.
